For orientation: Kd means the constant that tells how readily two partners part at equilibrium. A low value points to a tighter complex.

First the molecules themselves.
B1: Ube2T (enzyme)
chain: MQRASRLKRELHMLATEPPPGITCWQDKDQMDDLRAQILGGANTPYEKGVFKLEVIIPERYPFEPPQIRFLTPIYHPNIDSAGRICLDVLKLPPKGAWRPSLNIATVLTSIQLLMSEPNPDDPLMADISSEFKYNKPAFLKNARQWTEKHARQKQKADEEEMLDNLPEAGDSRVHNSTQKRKASQLVGIEKKFHPDV
B4: Ube2T D32A+D33A+L92A (enzyme)
chain: MQRASRLKRELHMLATEPPPGITCWQDKDQMAALRAQILGGANTPYEKGVFKLEVIIPERYPFEPPQIRFLTPIYHPNIDSAGRICLDVLKAPPKGAWRPSLNIATVLTSIQLLMSEPNPDDPLMADISSEFKYNKPAFLKNARQWTEKHARQKQKADEEEMLDNLPEAGDSRVHNSTQKRKASQLVGIEKKFHPDV
B8: Ube2T T23R+W25Q (enzyme)
chain: MQRASRLKRELHMLATEPPPGIRCQQDKDQMDDLRAQILGGANTPYEKGVFKLEVIIPERYPFEPPQIRFLTPIYHPNIDSAGRICLDVLKLPPKGAWRPSLNIATVLTSIQLLMSEPNPDDPLMADISSEFKYNKPAFLKNARQWTEKHARQKQKADEEEMLDNLPEAGDSRVHNSTQKRKASQLVGIEKKFHPDV

The target in test [1] is Xenopus laevis FANCD2 (xFANCD2) (Xenopus laevis). The test can be described thus: MST.
The target in test [2] is T1, FANCL URD-RING fragment (FANCL^UR) (human, UniProt Q9NW38 109-375).
T1 sequence: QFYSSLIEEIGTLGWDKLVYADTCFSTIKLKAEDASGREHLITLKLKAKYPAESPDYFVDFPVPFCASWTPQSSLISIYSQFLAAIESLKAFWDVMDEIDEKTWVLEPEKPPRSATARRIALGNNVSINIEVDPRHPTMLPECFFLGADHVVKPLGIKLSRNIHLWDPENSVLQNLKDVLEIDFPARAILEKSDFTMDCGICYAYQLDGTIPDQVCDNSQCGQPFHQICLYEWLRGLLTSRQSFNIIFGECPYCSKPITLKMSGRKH
The test can be described thus: ITC.

The target of the test “Ube2T” is B1. The experiment in a line: ITC. (In general: Isothermal titration calorimetry measures the heat released or taken up as one component is titrated into another.)
The target of the test “Ube2T D32A+D33A+L92A” is B4. The test can be described thus: ITC.
The test “Ube2T T23R+W25Q” has as its target B8. The experiment in a line: ITC.

The molecule “Ube2T^1-152 (from UniProt Q9NPD8 1-152) (domain or fragment)” had a Kd in test [1] of 320000 nM. As for “Ube2Tv3 in the Ube2T^1-152 background (E54R+P93G+P94G) (from UniProt Q9NPD8 1-152) (domain or fragment)”, in test [1], the Kd was 238000 nM. For the molecule B1, the dissociation constant (Kd) in test [2] is ~119 nM.

B2: Ube2T R84S (enzyme)
chain: MQRASRLKRELHMLATEPPPGITCWQDKDQMDDLRAQILGGANTPYEKGVFKLEVIIPERYPFEPPQIRFLTPIYHPNIDSAGSICLDVLKLPPKGAWRPSLNIATVLTSIQLLMSEPNPDDPLMADISSEFKYNKPAFLKNARQWTEKHARQKQKADEEEMLDNLPEAGDSRVHNSTQKRKASQLVGIEKKFHPDV
In the case of B2, in test [2], the binding result is reported as “binds”.

B3: FANCL RING (FANCL^R) (domain or fragment)
chain: EIDFPARAILEKSDFTMDCGICYAYQLDGTIPDQVCDNSQCGQPFHQICLYEWLRGLLTSRQSFNIIFGECPYCSKPITLKMSGRKH
B3: the equilibrium dissociation constant (Kd) with Ube2T, with Ube2T D32A+D33A+L92A and in the test with Ube2T T23R+W25Q was ~253 nM each time. For B4, the Kd in test [2] is ~119 nM.

B5: Ube2T K95A (enzyme)
chain: MQRASRLKRELHMLATEPPPGITCWQDKDQMDDLRAQILGGANTPYEKGVFKLEVIIPERYPFEPPQIRFLTPIYHPNIDSAGRICLDVLKLPPAGAWRPSLNIATVLTSIQLLMSEPNPDDPLMADISSEFKYNKPAFLKNARQWTEKHARQKQKADEEEMLDNLPEAGDSRVHNSTQKRKASQLVGIEKKFHPDV
In the case of B5, in test [2], the binding result is given as “binds”.

B6: Ube2T R84S+K91A+K95A (enzyme)
chain: MQRASRLKRELHMLATEPPPGITCWQDKDQMDDLRAQILGGANTPYEKGVFKLEVIIPERYPFEPPQIRFLTPIYHPNIDSAGSICLDVLALPPAGAWRPSLNIATVLTSIQLLMSEPNPDDPLMADISSEFKYNKPAFLKNARQWTEKHARQKQKADEEEMLDNLPEAGDSRVHNSTQKRKASQLVGIEKKFHPDV
For the molecule B6, the binding result in test [2] is recorded as “binds”.

B7: Ube2T K91A (enzyme)
chain: MQRASRLKRELHMLATEPPPGITCWQDKDQMDDLRAQILGGANTPYEKGVFKLEVIIPERYPFEPPQIRFLTPIYHPNIDSAGRICLDVLALPPKGAWRPSLNIATVLTSIQLLMSEPNPDDPLMADISSEFKYNKPAFLKNARQWTEKHARQKQKADEEEMLDNLPEAGDSRVHNSTQKRKASQLVGIEKKFHPDV
Turning to B7, in test [2], the binding result was “binds”. Consider B8, for which the affinity in test [2], expressed as Kd, was 200 nM.

The record behind these values is paper PMC7035956 (Nature chemical biology, 2019).
